Experiment [1] has as its target A5 domain (immobilized acceptor on the IAsys biosensor) (UniProt P08648). As to the kind of experiment: optical biosensor (IAsys), A5 immobilized, Kd = koff/kon.
Experiment [2] addresses T1, recombinant α5β1 integrin (immobilized, ELISA) (UniProt P08648 42-995; P05556 21-728).
T1 construct: also called a5b1 integrin
The experiment is described as follows: ELISA, DV on immobilized recombinant α5β1 integrin. (In general: In an ELISA, binding on a coated surface is turned into a signal by an enzyme label.)

Experiment [3] concerns the target A5 domain (immobilized acceptor on the IAsys biosensor) (UniProt P08648). As to the kind of experiment: optical biosensor (IAsys), A5 immobilized, free DV 8.0×10^-8 to 4.0×10^-7 M, global fit.

T1 sequence (P08648 42-995, chain 1 of 2): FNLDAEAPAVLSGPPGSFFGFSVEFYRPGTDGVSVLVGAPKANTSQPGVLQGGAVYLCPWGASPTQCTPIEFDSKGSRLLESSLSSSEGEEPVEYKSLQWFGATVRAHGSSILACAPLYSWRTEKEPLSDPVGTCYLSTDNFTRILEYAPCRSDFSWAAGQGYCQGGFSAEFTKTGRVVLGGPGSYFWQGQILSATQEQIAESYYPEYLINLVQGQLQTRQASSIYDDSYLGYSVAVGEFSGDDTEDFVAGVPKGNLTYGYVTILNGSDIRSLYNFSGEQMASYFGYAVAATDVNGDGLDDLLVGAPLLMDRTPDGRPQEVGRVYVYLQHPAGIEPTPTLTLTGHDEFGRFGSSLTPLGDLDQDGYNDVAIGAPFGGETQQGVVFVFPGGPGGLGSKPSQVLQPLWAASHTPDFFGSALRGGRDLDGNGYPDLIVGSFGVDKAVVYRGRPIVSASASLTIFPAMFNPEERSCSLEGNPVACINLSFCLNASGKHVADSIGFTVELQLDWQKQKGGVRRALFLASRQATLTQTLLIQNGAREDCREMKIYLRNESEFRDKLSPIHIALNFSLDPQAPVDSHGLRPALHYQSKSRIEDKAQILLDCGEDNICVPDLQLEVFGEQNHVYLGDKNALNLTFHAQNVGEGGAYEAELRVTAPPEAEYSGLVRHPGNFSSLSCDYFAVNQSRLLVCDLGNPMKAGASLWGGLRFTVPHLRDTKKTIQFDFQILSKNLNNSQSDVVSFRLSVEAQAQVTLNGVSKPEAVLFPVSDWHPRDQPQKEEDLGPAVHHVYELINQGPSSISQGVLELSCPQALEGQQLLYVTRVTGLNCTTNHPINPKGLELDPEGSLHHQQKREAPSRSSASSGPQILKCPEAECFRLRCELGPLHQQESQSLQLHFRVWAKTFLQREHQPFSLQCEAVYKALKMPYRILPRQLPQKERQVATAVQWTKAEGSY
T1 sequence (P05556 21-728, chain 2 of 2): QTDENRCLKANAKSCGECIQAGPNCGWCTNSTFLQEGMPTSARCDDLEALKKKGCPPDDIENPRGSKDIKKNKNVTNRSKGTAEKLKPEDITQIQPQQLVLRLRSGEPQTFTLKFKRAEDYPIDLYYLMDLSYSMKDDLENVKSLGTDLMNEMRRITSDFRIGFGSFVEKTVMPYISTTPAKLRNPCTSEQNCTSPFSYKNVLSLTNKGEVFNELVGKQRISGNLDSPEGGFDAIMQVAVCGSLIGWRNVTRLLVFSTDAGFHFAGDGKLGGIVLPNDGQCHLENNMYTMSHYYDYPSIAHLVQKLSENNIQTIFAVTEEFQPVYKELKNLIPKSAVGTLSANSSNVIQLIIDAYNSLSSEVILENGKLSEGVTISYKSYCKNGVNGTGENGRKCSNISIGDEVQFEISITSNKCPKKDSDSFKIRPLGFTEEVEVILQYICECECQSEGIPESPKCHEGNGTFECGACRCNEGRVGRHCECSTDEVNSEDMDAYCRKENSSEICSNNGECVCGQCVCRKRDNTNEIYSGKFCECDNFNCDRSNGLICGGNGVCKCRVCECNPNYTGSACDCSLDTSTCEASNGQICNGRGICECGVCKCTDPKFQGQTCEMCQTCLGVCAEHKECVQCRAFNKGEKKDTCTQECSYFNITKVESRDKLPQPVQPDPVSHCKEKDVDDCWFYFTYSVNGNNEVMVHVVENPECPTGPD

B1: perlecan Domain V (recombinant, C-terminal 6×His tag) (ligand)
chain: EIKITFRPDSADGMLLYNGQKRVPGSPTNLANRQPDFISFGLVGGRPEFRFDAGSGMATIRHPTPLALGHFHTVTLLRSLTQGSLIVGDLAPVNGTSQGKFQGLDLNEELYLGGYPDYGAIPKAGLSSGFIGCVRELRIQGEEIVFHDLNLTAHGISHCPTCRDRPCQNGGQCHDSESSSYVCVCPAGFTGSRCEHSQALHCHPEACGPDATCVNRPDGRGYTCRCHLGRSGLRCEEGVTVTTPSLSGAGSYLALPALTNTHHELRLDVEFKPLAPDGVLLFSGGKSGPVEDFVSLAMVGGHLEFRYELGSGLAVLRSAEPLALGRWHRVSAERLNKDGSLRVNGGRPVLRSSPGKSQGLNLHTLLYLGGVEPSVPLSPATNMSAHFRGCVGEVSVNGKRLDLTYSFLGSQGIGQCYDSSPCERQPCQHGATCMPAGEYEFQCLCRDGFKGDLCEHEENPCQLREPCLHGGTCQGTRCLCLPGFSGPRCQQGSGHGIAESDWHLEGSGGNDAPGQYGAYFHDDGFLAFPGHVFSRSLPEVPETIELEVRTSTASGLLLWQGVEVGEAGQGKDFISLGLQDGHLVFRYQLGSGEARLVSEDPINDGEWHRVTALREGRRGSIQVDGEELVSGRSPGPNVAVNAKGSVYIGGAPDVATLTGGRFSSGITGCVKNLVLHSARPGAPPPQPLDLQHRAQAGANTRPCPSHHHHHH
notes: domain: domain V; Secreted from transfected 293FT cells and purified on Ni beads; also called DV; endorepellin
For B1, in experiment [1], the Kd was determined as 160 nM. For the same molecule, the Kd in experiment [2] is ~30 nM. Moreover, in experiment [3], the koff turned out to be 0.72 s⁻¹ and the kon turned out to be 3.8e+06 M⁻¹ s⁻¹.

In general, Kd refers to the free concentration of one partner at which half of the binding sites on the other are occupied at equilibrium, for simple one-to-one binding. As usually defined, the koff is a measure of how fast the partners let go of each other. Usually kon stands for the rate constant with which the complex forms.

Source of the values: patent US20100168025A1 (TEXAS A AND M UNIVERSITY SYSTEM, published 2010).
